The source of these data is US20200010567A1 (NEURIMMUNE, published 2020).

Assay [1] concerns the target T1, (GP)15: H-C(GP)15-OH.
T1 construct: synthetic, not coupled to BSA; also called poly-GP DPR protein peptide
T1 peptide: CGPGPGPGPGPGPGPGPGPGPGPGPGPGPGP
Put plainly: indirect ELISA, coated peptide. As for the experimental part: (§1) In brief, dipeptide repeat proteins were synthesized and purified by Schafer-N(Copenhagen, Denmark): (GA)₁₅: H-CHHHHHH(GA)₁₅-OH; (GP)₁₅: H-C(GP)₁₅-OH; (GR)₁₅: H-C(GR)₁₅-OH; (PA)₁₅: H-C(PA)₁₅-OH; (PR)₁₅: H—C(PR)₁₅-OH. 96-well microplates (Corning Incorporated, Corning, USA) were coated with dipeptide repeat protein peptides at a concentration of either 5 μg/ml or 20 μg/ml in coating buffer (15 mM Na₂CO₃, 35 mM NaHCO₃, pH 9.42). Non-specific binding sites were blocked for 1 h at room temperature with PBS/0.1% Tween®-20 containing 2% BSA (Sigma-Aldrich, Buchs, Switzerland). Primary antibodies were diluted to the indicated concentrations and incubated for 1 h at room temperature, followed by incubation with a donkey anti-human IgG Fcγ-specific antibody conjugated with HRP (Jackson ImmunoResearch Laboratories, Inc., West Grove, USA). Binding was determined by measurement of HRP activity in a standard colorimetric assay. EC₅₀ values were estimated by non-linear regression using GraphPad Prism software (San Diego, USA). The binding specificity and EC₅₀ of human-derived antibodies for C9orf72 dipeptide repeat protein peptides (GA)₁₅, (GP)₁₅, (GR)₁₅, (PA)₁₅ and (PR)₁₅ were determined by indirect ELISA.

The target in assay [2] is T2, (GR)15: H-C(GR)15-OH.
T2 construct: synthetic, not coupled to BSA; also called poly-GR DPR protein peptide
T2 peptide: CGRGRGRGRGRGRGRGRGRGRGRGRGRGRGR
Put plainly: indirect ELISA, coated peptide. The method, then: as §1

The target in assay [3] is T3, (PA)15: H-C(PA)15-OH.
T3 construct: synthetic, not coupled to BSA; also called poly-PA DPR protein peptide
T3 peptide: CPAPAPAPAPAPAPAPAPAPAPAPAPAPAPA
Put plainly: indirect ELISA, coated peptide. The method, then: as §1

The target in assay [4] is T4, (PR)15: H-C(PR)15-OH.
T4 construct: synthetic, not coupled to BSA; also called poly-PR DPR protein peptide
T4 peptide: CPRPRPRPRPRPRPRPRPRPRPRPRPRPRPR
Put plainly: indirect ELISA, coated peptide. The method, then: as §1

Assay [5] addresses Tau (UniProt P10636-8 1-441, limits assumed). Put plainly: indirect ELISA, coated protein. The method, then:
(§2) 96-well microplates (Corning) were coated with different target proteins at a concentration of 1-10 μg/ml in coating buffer (15 mM Na₂CO₃, 35 mM NaHCO₃, pH 9.42). Non-specific binding sites were blocked for 1 h at RT with PBS/0.1% Tween®-20 containing 2% BSA (Sigma-Aldrich, Buchs, Switzerland). […] Binding was determined using donkey anti-human IgG Fcγ-specific antibody conjugated with HRP (Jackson ImmunoResearch Laboratories, Inc., West Grove, USA) followed by measurement of HRP activity in a standard colorimetric assay. Signals for target protein were calculated in fold increase above median.

The target of assay [6] is T5, transactive response DNA binding protein 43 (UniProt Q13148 1-414, limits assumed).
T5 construct: also called TDP-43
Put plainly: indirect ELISA, coated protein. As for the experimental part:
as §2

In assay [7] the target is transthyrethin (UniProt P02766 21-147). Briefly: indirect ELISA, coated protein. As for the experimental part:
as §2

Assay [8] concerns the target T6, full-length amyloid precursor protein (UniProt P05067 18-770, limits assumed).
T6 construct: also called flAPP
Briefly: indirect ELISA, coated protein. As for the experimental part:
as §2

Assay [9] addresses T7, (GA)15: H-CHHHHHH(GA)15-OH.
T7 construct: synthetic, not coupled to BSA; also called poly-GA DPR protein peptide
T7 peptide: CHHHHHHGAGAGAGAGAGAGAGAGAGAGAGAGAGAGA
Briefly: indirect ELISA, coated uncoupled peptide. As for the experimental part:
as §1

The target in assay [10] is T8, GA20: H-(GA)20HHHHHH-NH2 (C-terminal amide).
T8 peptide: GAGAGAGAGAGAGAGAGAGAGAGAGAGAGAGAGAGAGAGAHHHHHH
Put plainly: indirect ELISA, coated His-tagged peptide. From the text: (§3) In brief, dipeptide repeat proteins were synthesized and purified by Schafer-N (Copenhagen, Denmark): GA₂₀: H-(GA)₂₀HHHHHH-NH₂; GA₁₀: H-(GA)₁₀HHHHHH-NH₂; GA₆: H-(GA)₆HHHHHH-NH₂; GA₅: H-(GA)₅HHHHHH-NH₂; GA₄: H-(GA)₄HHHHHH-NH₂; GA₃: H-(GA)₃HHHHHH-NH₂; GA₂: H-(GA)₂HHHHHH-NH₂; GP₂₀: H-(GP)₂₀HHHHHH-NH₂; GP₁₀: H-(GP)₁₀HHHHHH-NH₂; GP₆: H-(GP)₆HHHHHH-NH₂; GP₅: H-(GP)₅HHHHHH-NH₂; GP₄: H-(GP)₄HHHHHH-NH₂; GP₃: H-(GP)₃HHHHHH-NH₂; GP₂: H-(GP)₂HHHHHH-NH₂. GR₂₀: H-(GR)₂₀HHHHHH-NH₂; GR₁₀: H-(GR)₁₀HHHHHH-NH₂; GR₆: H-(GR)₆HHHHHH-NH₂; GR₅: H-(GR)₅HHHHHH-NH₂; GR₄: H-(GR)₄HHHHHH-NH₂; GR₃: H-(GR)₃HHHHHH-NH₂; GR₂: H-(GR)₂HHHHHH-NH₂; PA₂₀: H-(PA)₂₀HHHHHH-NH₂; PA₁₀: H-(PA)₁₀HHHHHH-NH₂; PA₆: H-(PA)₆HHHHHH-NH₂; PA₅: H-(PA)₅HHHHHH-NH₂; PA₄: H-(PA)₄HHHHHH-NH₂; PA₃: H-(PA)₃HHHHHH-NH₂; PA₂: H-(PA)₂HHHHHH-NH₂; PR₂₀: H-(PR)₂₀HHHHHH-NH₂; PR₁₀: H-(PR)₁₀HHHHHH-NH₂; PR₆: H-(PR)₆HHHHHH-NH₂; PR₅: H-(PR)₅HHHHHH-NH₂; PR₄: H-(PR)₄HHHHHH-NH₂; PR₃: H-(PR)₃HHHHHH-NH₂; PR₂: H-(PR)₂HHHHHH-NH₂. 96-well microplates (Corning Incorporated, Corning, USA) were coated with dipeptide repeat protein peptides at a concentration of 50 μg/ml in coating buffer (15 mM Na₂CO₃, 35 mM NaHCO₃, pH 9.42). Non-specific binding sites were blocked for 1 h at room temperature with PBS/0.1% Tween®-20 containing 2% BSA (Sigma-Aldrich, Buchs, Switzerland). Primary antibodies were diluted to the indicated concentrations and incubated 1 h at room temperature, followed by incubation with a donkey anti-human IgG Fcγ-specific antibody conjugated with HRP (Jackson ImmunoResearch Laboratories, Inc., West Grove, USA). Binding was determined by measurement of HRP activity in a standard colorimetric assay. EC₅₀ values were estimated by non-linear regression using GraphPad Prism software (San Diego, USA).

The target of assay [11] is T9, GA10: H-(GA)10HHHHHH-NH2 (C-terminal amide).
T9 peptide: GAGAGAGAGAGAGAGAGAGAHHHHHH
Briefly: indirect ELISA, coated His-tagged peptide.
From the text: as §3

Tau, sequence (P10636 other isoform, or with tags, fused parts or gaps limits assumed): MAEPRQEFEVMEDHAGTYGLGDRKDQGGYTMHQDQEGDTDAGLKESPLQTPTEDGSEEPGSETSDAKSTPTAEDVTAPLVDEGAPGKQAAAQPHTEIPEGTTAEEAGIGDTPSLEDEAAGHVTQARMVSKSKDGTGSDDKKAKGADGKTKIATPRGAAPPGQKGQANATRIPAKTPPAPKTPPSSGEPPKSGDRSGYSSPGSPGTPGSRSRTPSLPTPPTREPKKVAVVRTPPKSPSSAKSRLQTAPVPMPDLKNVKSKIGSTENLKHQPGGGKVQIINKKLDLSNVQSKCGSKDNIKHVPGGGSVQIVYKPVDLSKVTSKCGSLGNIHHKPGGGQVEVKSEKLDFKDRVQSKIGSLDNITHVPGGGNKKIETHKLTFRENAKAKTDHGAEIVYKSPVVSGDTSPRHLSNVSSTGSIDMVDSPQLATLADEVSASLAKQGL
T6 sequence (P05067 18-770 limits assumed): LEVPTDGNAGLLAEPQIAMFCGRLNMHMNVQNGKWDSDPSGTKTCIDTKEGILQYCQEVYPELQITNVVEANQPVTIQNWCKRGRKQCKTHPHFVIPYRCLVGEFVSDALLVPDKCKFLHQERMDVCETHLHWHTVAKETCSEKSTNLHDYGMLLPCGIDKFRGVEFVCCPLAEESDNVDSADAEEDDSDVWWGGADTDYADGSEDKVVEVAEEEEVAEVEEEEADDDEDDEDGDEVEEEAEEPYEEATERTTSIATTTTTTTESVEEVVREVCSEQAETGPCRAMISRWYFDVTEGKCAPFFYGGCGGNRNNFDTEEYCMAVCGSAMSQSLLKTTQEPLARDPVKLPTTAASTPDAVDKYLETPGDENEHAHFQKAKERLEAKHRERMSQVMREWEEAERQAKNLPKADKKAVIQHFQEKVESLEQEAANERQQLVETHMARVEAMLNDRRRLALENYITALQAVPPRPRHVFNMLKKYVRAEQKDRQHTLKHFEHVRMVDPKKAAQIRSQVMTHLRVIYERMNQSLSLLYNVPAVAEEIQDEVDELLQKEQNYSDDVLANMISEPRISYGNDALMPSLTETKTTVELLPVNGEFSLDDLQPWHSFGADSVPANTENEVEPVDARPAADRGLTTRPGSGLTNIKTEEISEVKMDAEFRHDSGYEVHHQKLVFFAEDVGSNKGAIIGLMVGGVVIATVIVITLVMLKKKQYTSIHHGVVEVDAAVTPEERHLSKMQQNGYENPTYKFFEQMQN
T5 sequence (Q13148 whole entry): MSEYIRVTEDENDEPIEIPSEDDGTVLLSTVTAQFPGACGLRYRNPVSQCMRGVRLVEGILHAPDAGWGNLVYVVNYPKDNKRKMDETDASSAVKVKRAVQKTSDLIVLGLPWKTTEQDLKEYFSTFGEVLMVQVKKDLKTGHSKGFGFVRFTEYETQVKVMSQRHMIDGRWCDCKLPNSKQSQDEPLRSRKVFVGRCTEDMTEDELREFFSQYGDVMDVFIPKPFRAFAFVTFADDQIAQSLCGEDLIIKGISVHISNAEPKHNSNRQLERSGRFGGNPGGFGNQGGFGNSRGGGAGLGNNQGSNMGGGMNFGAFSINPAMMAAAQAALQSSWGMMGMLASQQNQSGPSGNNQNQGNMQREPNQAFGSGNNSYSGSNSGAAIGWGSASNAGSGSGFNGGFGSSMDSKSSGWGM

B1: NI-308.18F7 (antibody, V domains shown)
VH: QVQLQESGPGLVKPSETLSVTCTVSGGSINDYYWNWIRQPAGKGLEWIGRIYASGTINYNPSLQSRVTMSIDTSKNQFSLDLISVSAADTAVYYCARWGQVVGDYYYGMDVWGQGTTVTVSS
VL: EIVLTQSPLSLSVTPGEPASISCKSSQSLQHTNGYNYLDWYLLKPGQSPQLLIFLTSNRASGVPDRFSGSGSGTNFTLKISRVEAEDVGVYYCMEGIQLWTFGQGTKLEIK
notes: Recombinant complete human IgG1, kappa
In the case of B1, the binding result in assay [1] is reported as “no binding”; in [2] it was “no binding”; in [3], “no binding”; in assay [4] it was “no binding”; in assay [5] it was “no binding (tested: 20 nM)”; in assay [6], “no binding (tested: 20 nM)”. Further, the binding result in assay [7] and in [8] was “no binding (tested: 20 nM)” throughout. For the same molecule, the EC50 amounted to 1.5 nM in [9], 0.83 nM in assay [10] and 0.78 nM in assay [11].

B2: NI-308.28G1 (antibody, V domains shown)
VH: QVQLQESGPRLVKPSETLSLTCTVAGGSVNSYYWTWIQQSPGKGLEWLGRIYIAGRTNYNPSLTSRIALSVDTSRNQLSLKLTSVTAADTAIYYCARWGAESGDYYYGVDVWGPGTLVTVSS
VL: EIVMTQSPLSLPVTPGEPASISCKSSEGLLHSNGYTYLDWYLQKPGQAPQLLIFLASNRAAGVPDRFSGSGSGTDFTLKISRVEAEDVGVYYCMQAIQSPWTFGPGTKVEIK
notes: as for B1
As to B2, the binding result in assay [1] is on record as “no binding”; in assay [2], “no binding”; in [3], “no binding”; in [4], “no binding”; in assay [5], “no binding (tested: 20 nM)”; in assay [6], “no binding (tested: 20 nM)”. In addition, the binding result in [7] and in [8] was “no binding (tested: 20 nM)” each time. Also, the results for the EC50 in [9], in assay [10] and in assay [11] were 1.1 nM, 1.1 nM and 0.9 nM, respectively.

B3: NI-308.5G2 (antibody, V domains shown)
VH: EVQLVQSGADLRNPGASVTVSCTASGYHFADNAINWLRQAPGQRLEWMGWINIYSGNTKYSQNFQGRVTFTRNTSASTAFMHLRSLRSEDTAVYFCARDPDSSGYYLPYFDYWGQGTLVTVSS
VL: DIQLTQSPDSLTLSLGERATINCKSSQSVFYNSNNKNYLAWYQQKPGQPPKLLMYWASTRESGVTDRFSGSGSGTDFTLTITNLQAEDVAVYYCQQFYSSPLTFGGGTKVEIK
notes: as for B1
On to B3, for which the binding result is recorded as “no binding” in assay [2]; “no binding” in assay [3]; “no binding” in assay [4]; “no binding (tested: 20 nM)” in assay [5]; “no binding (tested: 20 nM)” in [6]; “no binding (tested: 20 nM)” in [7]. The binding result in [8] is “no binding (tested: 20 nM)”. For the same molecule, the EC50 is approximately 15.3 nM in assay [9], 18.2 nM in assay [10] and 5.7 nM in assay [11].
